The source of these data is the DeepSol protein solubility set.

The data set in a line: soluble on expression in E. coli; label from the status in PepcDB or PDB records.
For the sequence “MMNYDRILIRYGEMTTKGKNRNIFVRRLKNNIARKLQAFERIQIEYMRDRMYILLNGEPHEPIIEKLKTVFGIHSFSLAMKCENDLDAIKETALAAVRQLPYKGKTFKVSARRVDKQFPDRSDELNYEVGAHILRHTDGLTVNVREPDIDVRIEVRQDGTYVTCRDIFGAGGLPVGTSGKAMLMLSGGIDSPVAGYLSMKRGLEIEAVHFFSPPFTSERAKQKVIDLVRKLTTYGGRIKLHIVPFTEVQQAIYQGVPNEYSLISTRRAMLRITDALRRRQRALAIVTGESLGQVASQTLESMYVINEVTNTPILRPLVSMDKLEIIELAKQIGTHDISILPYEDCCTIFTPRAPKTKPKKEKVFHYESQLDLAPLLEKAVNDTETLVIDEETGQGDEFAELF”, the “soluble on expression in E. coli” value is listed as “not soluble”.

Take “MASINLIKSLKLYKEKIWSFDFSQGILATGSTDRKIKLVSVKYDDFTLIDVLDETAHKKAIRSVAWRPHTSLLAAGSFDSTVSIWAKEESADRTFEMDLLAIIEGHENEVKGVAWSNDGYYLATCSRDKSVWIWETDESGEEYECISVLQEHSQDVKHVIWHPSEALLASSSYDDTVRIWKDYDDDWECVAVLNGHEGTVWSSDFDKTEGVFRLCSGSDDSTVRVWKYMGDDEDDQQEWVCEAILPDVHKRQVYNVAWGFNGLIASVGADGVLAVYEEVDGEWKVFAKRALCHGVYEINVVKWLELNGKTILATGGDDGIVNFWSLEKAA”: the “soluble on expression in E. coli” value is “soluble”. On to “MVHDSALPFDALPMPPQGREGFEECPYLDSQWVADTNGQRMTGQGVDTRFDTPACVFWSYPEAPQATVMVRHMPSEEEAIRVVDWAAPIDTTEPAEEPDGWSGGRAGHEEGAVYAVQKGPVAVVVWSNQQQSLKAELMAKEAIARLGL”, for which the “soluble on expression in E. coli” value is reported as “soluble”. To “MTDHSIRSRALGAYLGLACGDALGATVEFLTKGEIAHQYGVHKHIKGGGWLKLPAGQVTDDTEMSIHLGRAILAAPEWDARRAAEEFAVWLKGVPVDVGDTTRRGIRRFIMHGTLSEPESEYHAGNGAAMRNLPVALATLGDDAAFERWTVEQAHITHCNAMSDAATLTLGHMVRRLVLGGDVRDVRDESNKLIAKHRQFKFQPYRGLATAYIVDTMQTVMHYYFQTDSVESCVVETVNQGGDADTTGAIAGMLAGATYGVETIPPRWLRKLDRDVYNEICAQVDGLLARAPALKQG” belongs “soluble”; to “MDKYHSMKELQNETIENEDWEIITEDRDSNVTILAIHGGGIEPATTELARVIANDGQFNYFAFNGMRTKGNNELHVTSINYDNDIAMDLVKTSESAITIHGCLGEDEIAYIGGKDNLLKERIVEELSQIGIEVKEAPSHMSGTQDNNIVNCTKNGVGVQIELTSSLRKSLFKNNKFNRKSRMDESNWDDKMYDFGQAINSAINLEHHHHHH”, “soluble”. As to “MNQLNGQQLNDIILVLQNFTHSTLKKDLISLNAFKKAELTCGILRIELSMPFVWQTGFEALQAEVEQQLKQITGASGVKWVLNYQIATLKRANNHPAVNGVKNIIAVTSGKGGVGKSTTSINLALALQAQGAKVGILDADIYGPSIPHMLGAQDQRPTSPDNRHITPIEAYGIQSNSIGYLMAEDNATIWRGPMASSALSQLLNETWWTDLDYLVIDMPPGTGDIQLTLSQQIPVTGAVVVTTPQDIALLDAIKGIAMFQKVAVPVLGVIENMSVHICQNCGHQEAIFGTGGASKVAEKYNTQLLGQLPLHIRLRQDLDAGTPTVVADPTHEISQAYLALAAKVAAELYWQGTVIPSEIMIREVK”, the “soluble on expression in E. coli” value is “not soluble”. On to “MGSDKIHHHHHHAEDDRMTPLSADSGDTADELIPIHISLTGDNDYHSSSFNDASTRSHSPLIAEWVGVKAFSPTRTGEQPDYEGPRIASMELTEDTLPRVSTRATVPAGVYFRLIVFRKSGNNYVFQSVADYASNGTGTPVLERGKLLTRSGTIRVVGYSFNTTADLGDMPSTYAYNSSTVSIPDMSKDFMTFDSGDITNVNSLSHNLPVSFSQKLCKLTITISPTGFPSNTITNCTGVYVKQGGNSTSWKIGPSTNVVAANTNNTAAFSPNTTLNTTIRMVPFAGARTITVHFNTLTVGGRTVNNNTEITSTQSVQLKEGKSYTLKIQFKKGPGINVPASNINLTQNGCTENDKTILSKLRWAEGNLNSQSNYNLTWASSTTDYGYYYIWKNVYVSSGYTGYGAVDPCTRLDESIYGSGWRTPTRSEFISLSRCSNKQLVKYNGIQGMWFMNSSTGLFLPAAGYRDGDKGSGTTATAYTNGTGSYYWSSDLNGNSAYGLYILKNDVFVDANGNRKSGVSVRCVHNL”, for which the “soluble on expression in E. coli” value is reported as “not soluble”. With “MGSDKIHHHHHHMSHWFFIINPTAGHRNGLRVWKSIQKELIKRKVEHRSFLTEHPGHAEVLARQISTIQEYKLKRLIVIGGDGTMHEVVNGLKDVDDIELSFVPAGAYNDFSRGFSIKKIDLIQEIKKVKRPLTRTFHLGSVNFLQDKSQILYFMNHIGIGFDAYVNKKAMEFPLRRVFLFLRLRFLVYPLSHLHASATFKPFTLACTTEDETREFHDVWFAVVSNHPFYGGGMKAAPLANPREKTFDIVIVENQPFLKKYWLLCLMAFGKHTKMDGVTMFKAKDITFYTKDKIPFHADGEIMGTTPFRLASSPSPLRIKT”, the “soluble on expression in E. coli” value is reported as “not soluble”. With “MPHDPGATRLLAISPHLDDAVLSFGAGLAQAAQDGANVLVYTVFAGAAQPPYSPAAQRMHTIWGLAPDDDAVLYRRKEDIAALDHLRVAHRHGRFLDSIYRKLPDGRWLTAHVEGRQKLAVNDHSPDSDHDLVGEVADDIRSIIDEFDPTLVVTCAAIGEHPDHEATRDAALFATHEKNVPVRLWEDLPYAVFKSGAVELPQGFRLGSADVSSVKPEMRSQKFQAVERYSSQMVLLNGSENNLFDRLDEHARQNAPHGGYGETTWPVVRSDDS”, the “soluble on expression in E. coli” value was “soluble”. On to “MSLENKIVKIEPQSIAEEMGIEVGDSLISINGKEVKDIIDYRFLMADEYVVVKIQKTNKEIWELEIEKEYDEKLGVEFESGILDSAKSCRNKCIFCFIDQLPKGMRKTLYFKDDDSRLSFLQGNFVTLTNMSDDDIDRIIKYRISPINISVQTTNPELRKKMLNNKFAGNLMERMKKLSNAGITMNCQVVLCPGINSGEEFSKTVNDLYKLYPSVKNIAGVPVGITSYREGLFNMVPYDSQSALKEIENIKPIQEKFIKEIGSPFVRLSDEFYVLSGIPIPKAEFYGEFEQFEDGIGMIRTFRDNINMSLDNLKDGIHKSFTMVTGVLAYEEIENAAKMLMEKSRGLKINVIKVINEFFGEKITVAGLLTGRDILNYLKRNEVGDYIILPSNMLKSDEDVFLDDVKVLDIEKELNKKVLVCNYSGEDLVDIINKNGREEEGHHHHHH”, for which the “soluble on expression in E. coli” value is “not soluble”. As for “MSLQPSQRVVLSHLVHGGWDEIAHSSLRPEIRGFKRTREVARSLLARRLPIYSAVFTGDCLFGNHPLLRPIGIHMQNVQAGNLLVSSTLVDGTVLNQAVCLMVHEDTEHAIGLMLNRPMQAMAGAITIQGTPQETPKIPRWNAEDLDETSEGDSTIDPSSDSIEHPVSGVPSVVISGDQKDQLAQQLLSGKLANGSSLHFGGPLSGPIVAVHSNRELAEAETGEGIFVAAQRENLEALMKSSDLPYRLIIGHLGWTAEQLENEIEEGIWHRIPATSDLLNSDDAMMWPRMIRRATANSVARWLDTTDVPGSAELNEGHHHHHH”, the “soluble on expression in E. coli” value is recorded as “soluble”. To “ASEKVGMNLVTAQGVGQSIGTVVIDETEGGLKFTPHLKALPPGEHGFHIHANGSCQPAIKDGQAVAAEAAGGHLDPQNTGKHEGPEGQGHLGDLPVLVVNNDGIATEPVTAPRLKSLDEVKDKALMIHVGGDNMSDQPKPLGGGGTRYACGVIK” belongs “soluble”. For the sequence “SVPIVSAWEKGMEAARALMDKYHVDNDLKANFKLLPDQVEALAAVCKTWLNEEHRGLQLTFTSNKTFVTMMGRFLQAYLQSFAEVTYKHHEPTGCALWLHRCAEIEGELKCLHGSIMINKEHVIEMDVTSENGQRALKEQSSKAKIVKNRWGRNVVQISNTDARCCVHDAACPANQFSGKSCGMFFSEGAKAQVAFKQIKAFMQALYPNAQTGHGHLLMPLRCECNSKPGHAPFLGRQLPKLTPFALSNAEDLDADLISDKSVLASVHHPALIVFQCCNPVYRNSRAQGGGPNCDFKISAPDLLNALVMVRSLWSENFTELPRMVVPEFKWSTKHQYRNVSLPVAHSDARQNPFDF”, the “soluble on expression in E. coli” value is on record as “soluble”. Consider “SLYCIEEKIEKALGIKEASLVLKNCNIVNVFSSEIIRGDLAIDGDTIIGIGKYKGKTEIDLSNKYVAPGFIDSHVHIESSMVSPKEFARAVISRGTTTIIVDPHEIANVCGMDGIKYMMEETKNMPLDVFFMLSSCVPATSFETSGAVLKAEDLKELIDSDRVLGLGEMMNYPGVLSREEEVLNKLKLAGSYNKIVDGHAPSVRGNELNAYNLAGIKTDHECSSIEEMNEKIRNGMYIAIREGSAAKNLDILIKGVNAKNERRIMFCADDRHPDDILKSGHMDNCVRRAIYNGIENTAAIRMASINAAECYKLERVGAIAPSYKADLVVLEDLKDVKVNMVIKSGEVVFKDNKHLKDMGSKSDITKVSNTVNIKKVSEENLELKLDTDVCSIISVALNSISTKNVKRKVNLSNGIFKCELNYGINKVAVIERHKKSGSIGIGLVENFGLKRGAIASTVAHDSHNIIVLGNNDEDMVKAVNEIERVGGGITISLDGKIIETLELEIAGLMSNKSMEFVAERVSKMINICHNTLGVNKDIQPFMTLAFLALPVIPEIRITDKGVFDVVNFKFL”, for which the “soluble on expression in E. coli” value is given as “soluble”.

For the sequence “MGSDKIHHHHHHNRRELTYSPEATITISADWSQSGLNEKEQDYGATAIFYPTDGSTPFVALMGDRTYKTLCLKEGCYNVVLFNRSFDDFGNLCFRGEENYQTLEAYVKKMEIRNESSSERIIMESPDELAADYIEGFEVTSDMPENYSSAITQQSNRNSTRNENSCHLRFTPKKLTQKITVKIRIKGMNNIRKATCTLDGIAESIFLVSKQNSEKTVTQVLRLSNPIYDSGSVTEGTLSTTISVFGFDVEIPHNLHLKAKLVDGKTIFEESFNDLAIRRLDEEDGTMSVFIDMACEKTVPNVKTEGSSGFDADVDKWNDEVNSDIDI”, the “soluble on expression in E. coli” value is listed as “not soluble”. To “SGGRRWNWVQSWPVWKYFKEYFPICLVKTQDLDPGHNYIFGFHPHGIFVPGAFGNFCTKYSDFKKLFPGFTSYLHVAKIWFCFPLFREYLMSNGPVSVSKESLSHVLSKDGGGNVSIIVLGGAKEALEAHPGTFTLCIRQRKGFVKMALTHGASLVPVFSFGENDLYKQINNPKGSWLRTIQDAMYDSMGVALPLIYARGIFQHYFGIMPYRKLIYTVVGRPIPVQQILNPTSEQIEELHQTYLEELKKLFNEHKGKYGIPEHETLVFK” belongs “soluble”; to “MAHHHHHHSLAEQIDLKTFKTDVADYEAARPEYPIGITDWITDEFLIDETSIILELGAGTGKFTPRIIASHPKEIIAVDVYPEMLDVLRKKFPNVDCRAGSAMAIPLEDESVDLVLCAQCFHWFANEEAMKEIYRVLKPNGKLGLVWNTRDDTVPWIEKVSKILGRYRKDAPSFVSWKWAELFPGHGFGKLRYCAFPFSRCLTVEELHTLMNSFSFIYKLPEEEKEKVHAELDEIAKTIPRVQNTDQIKLCYQTMAFSSEKEPAKEG”, “soluble”. Consider “MSLNHHPIIYLVDHQKDARAALSKLLSPLDVTIQCFASAESFMRQQISDDAIGMIIEAHLEDKKDSGIELLETLVKRGFHLPTIVMASSSDIPTAVRAMRASAADFIEKPFIEHVLVHDVQQIINGAKEGHHHHHH”, for which the “soluble on expression in E. coli” value is on record as “soluble”. As to “MALPRITQKEMTEREQRELKTLLDRARIAHGRPLTNSETNSVKKEYIDKLMALREAEAKKARQLKKKQAYKPDTEASFSWSANTPTRGRR”, the “soluble on expression in E. coli” value was “not soluble”. To “ADPAECSIKVMCRFRPLNEAEILRGDKFIPKFKGEETVVIGQGKPYVFDRVLPPNTTQEQVYNACAKQIVKDVLEGYNGTIFAYGQTSSGKTHTMEGKLHDPQLMGIIPRIAHDIFDHIYSMDENLEFHIKVSYFEIYLDKIRDLLDVSKTNLAVHEDKNRVPYVKGCTERFVSSPEEVMDVIDEGKANRHVAVTNMNEHSSRSHSIFLINIKQENVETEKKLSGKLYLVDLAGSEKV” belongs “soluble”.
